Legend:
[1] = target: PCSK9 protein (UniProt Q8NBP7); experiment: PCSK9-LDLR in vitro binding assay kit, OD450/540; peptide 50 µM, PCSK9 75 ng/mL; inhibition of PCSK9 binding to LDLR
[2] = target: bovine trypsin (bovine), P00760; experiment: cell-based or functional assay
bovine trypsin (bovine), P00760, sequence (P00760 24-246): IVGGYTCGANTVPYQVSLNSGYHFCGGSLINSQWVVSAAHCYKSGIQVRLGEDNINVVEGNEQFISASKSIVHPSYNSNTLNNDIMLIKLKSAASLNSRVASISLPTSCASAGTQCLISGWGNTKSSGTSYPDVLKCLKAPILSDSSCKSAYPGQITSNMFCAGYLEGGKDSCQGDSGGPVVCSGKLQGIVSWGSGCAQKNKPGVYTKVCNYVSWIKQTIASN

Binder	Inhibitory rate (%) [1]	residual trypsin activity at 0.0000098 µM BT1 [2]	residual trypsin activity at 0.000098 µM BT1 [2]	residual trypsin activity at 0.00098 µM BT1 [2]	residual trypsin activity at 0.02439 µM BT1 [2]	residual trypsin activity at 0.0488 µM BT1 [2]	residual trypsin activity at 0.098 µM BT1 [2]	residual trypsin activity at 0.98 µM BT1 [2]	residual trypsin activity at 9.76 µM BT1 [2]
GTNEALDNNCGRATKSIPPICFTVFTS [PCSK9_13]	15.8%								
GRCTKSIPPICFPD (modifications not checked) [BT1]		102%	102%	101%	69.6%	24.1%	3.3%	0%	0%
